Experiment: label from the status in PepcDB records

| Sequence | protein production |
| --- | --- |
| MNTYLKNSPGFWIGRIHHKLKNRMNQRLKPYDLTAEQRLILLRLFEFGEMTQQQLCQKTFTEPSNITLTLRRMESHGYVRKKPHPKDKRASLIEATPKALSIQNELERIGLEITDSLLLEVDPSEKETLLRVLQAMYQKMLQEEAIEEFSF | failed |
| MDYREVDSTSEFVCRLEHGGDWRAQIEAFADEQGIDAGFFYGLGAVQDAELMFYDQDRTEYDSLTFDEPLEVAACMGNISHFDGERFAHTHAVLSRPDGEAVAGHLNAGTVWAGELYVRGFDTELQREHDEPTDLDLWNILEHHHHHH | failed |
| MYKKNLMKLLPAVAVIIAIAAAGFQQDSEVKSTKTVQAAENELIKSDELTSLLTTAYFNDGGMKDTDEADSSILKTKKSKSKIKKAGITTGKTKALPEKSAAASGQGQGTTTTPTTSVPKGGYKDGIYQGSGTGFGGTITVQVTISGGKIASIEILSAAGETGSYFASAKGVISKMISGQTPNVDAVSGATYSSNGIIQAVQNALSKAGKGKAAKTTKKTTKKNTNTSNKTTIPVEITKPSGEVTYKDGMYTAEAEGFDGPIKVTVTIKDGKITAITNTNTDTKEYFNKAWNSIQPKILEKQAVYGVDTVIGATFSSNGILKAVQKALEQASVNVTPAPEVTVSPTPVPTTAPAPVIPDTPKVLYNDGTYTGTGIGYGGKINISVTIKDGIITEVSQTNEGETPRYFRNAWNVIQPAIIAKQSTDGIDTVSGATYSSEGILYGAKSALEQALKTSDITATPTPNPTATPEPTAAPEPTAAPEPTAAPEPTAAPEPTATPEPTATPEPTATPEPTTAPGAGYKDGSYTGTGEGFNGQVTVTINVSGGNIVSAGYDGEDDEPEFSNAWNGIYNQIMGKQSADGIDTVTDATYSSNGLIQAFQSAISQAK | failed |
| AAKGNMQCNIFVPAGTSKGKTTQTRLYGANCIEVEGTREDVALAAIESSVTHGSHYVGHNWHPLFIEGVKSIAYEIWEQCGYKAPDNFVVPAGNGSLLAGAYIGFSELLKGGEISKLPRLFGIQSESIQPFVQTFNNKEINITSEDTIAEGIKIKRSSRMNEIVQFVKETNGNFISVNEQQIQSALKEMGAQGYFIEPTSATAFAGIAQLIKTQEIKPDELTVGVVTGNGLKATNSIEHLI | failed |
| MAADPASAPVLLHPRRAMVLAAGLGLRMRPLTETMPKPLVAIHDKPLIDWALDHLATAGVEEAVVNLHHLPEMLEAHLQGRATPRIHFSDETGQRLETGGGVRKALPHLGDDPFYVLNSDVLWLNGTIPALDRLAAAWDPETMDALLLLHPLAAAHGYEGLGDFDLDPLGRPTRRAEMHMAPFIFTGVQILHPRLFDDAPEGPFSLNVLYDRALSEDRLAAIVHDGEWYHVGTPQALVHTETILGQHSSMSDQLEHHHHHH | failed |
| MESLRSERNQYRILVDITNSVLAHLDMDGLISEVSKEIHRFFGLNHISLMLCRTSSQNSHEGILYSSRYQTGKSVIRQQRKFSSANNKAEEIIHQNKPVLIDINKEDQDDVLIKRLVKQNMQTALLLPLAFNRKPLGLLILAHEISSVFTEETCQLLQQIAARIGIAIENAAAYEEITHLKDS | not failed |
| GSSGSSGMKQATRKPTTPGDILLYEYLEPLDLKINELAELLHVHRNSVSALINNNRKLTTEMAFRLAKVFDTTVDFWLNLQAAVDLWEVENNMRTQEELGRIETVAEYLARREERAKKVA | not failed |
| VVQRAAETYDLLKQRTEELRRANAQMSLLTVLVQVTQASNSLEAILTPIATAFAESFAVNACILQMLEGQTLSTIQGFYSQQGTVNNWLNQDPLTNEAIATGQIQVAANIAKDPKLASISQYQDNGIQSHVVIPITYRNEMLGVLSLQWQQPISLREDELTLIHLSAQLVAIALTSSRCSL | not failed |
| HEETECPLRLAVCQHCDLELSILKLKEHEDYCGARTELCGNCGRNVLVKDLKTHPEVCGREG | not failed |
| MRKYLLIGVSAFVLGAGTMAYISPIAQANNAPKAQTYKLLELFGDVLGTVEDQYVTEVDDKKLIEAALDGMLTSLDPHSGYLAPDAFEDMQDTTRGEYGGLGLEVTSEEGVVKVISPMDGTPASRAGIQAGDYITAVNGQSVLGLTVNEAVKQMRGTAGEAVTLTIAREKTDPFDVKLVREVIKPKAAIARMEGDYGYVRLPGFNEKATDALASSVSELKSKNPKMKGLILDLRNNPGGLLDQAVGVADVFLDGGEVVSQRGRDPRNIQRYNARGGDMLNGLPMVVLINQGSASAAEIVAGALQDRKRAEVVGLTSFGKGSVQTVIPLRGGADGALKLTTARYFTPSGRSIQKTGIAPDLEVAQTRDQAQDIANRVWFSEASFKNALNADEGKSRVGAHTPAEAPPTGFDDKKGDFQLQRAIAVLQAGGVAKTPKLPKPAAKVAEVTAKAAAAAGGKTPVTEVK | failed |
| MRVVALVPGGIGDQILFFPTLDDLKRYYPNAQLDVVVEPRSKAAYRVSKSVNDILTFDYKDRNSLADWGNLVGTIRDREYDVVITVGQSWLVGLFLWLTGIPTRIGYQGKGRSFLTKTVPFKPSQYAAAVYHDLLAPIGITTPTPELAVNVPKPDIDWANSEQKRLGVNETGYVLIYGGSSWVSQPQALETIYPAENWQEIIQDFRQKQPDLPVVVIQGPDDEQFVRSLRDYSLDIKVTSPDNVGKLTAMIAGANLMLTTDSAPLHLSVAVQTYTIALFGSTDPVKLLPNSDKLLGIKSSTGRVADILPKAVLEKVWGGLEHHHHHH | not failed |
| MKEELFKEKSRYITGFVLIIVADLILYADNLLLFWAVLGGIYAVGFSEALRLFQVKASFSLYLILVLSWVAAYFNGRPIECALISAMVMASVIAYQKAHHSEAILPFLYPGVGFFALFGVYKDFGAVAIIWLLVVVVASDVGAFFGGKLLGKTPFTPTSPNKTLEGALIGVVLASVLGSFVGMGKLSGGFFMALFFSFLIALVAVFGDLYESYLKRKVGIKDSGKILPGHGGVLDRLDSMLFGALGLHALLYFLEIWKETAVFLGD | failed |
| MISVCIATYNGEKYLAEQLDSILLQVSEEDELIISDDGSTDHTLEILRTYAANYPQIQLLQGPGQGVIANFAFALTHTKGEVIFLADQDDVWLPNKVTTVTEYFETHPDIQVVISDLKIVDADLQVTNPSYFKFRKVKPGFWRNAIKSGYIGAGMAFRQEMKNVILPIPPEVPMHDMWIGLLAARKKQTGLIKEPLVLYRRHGANVSPIITKTSFQQKLNWRVNLLKALHQRLKEQRLEHHHHHH | not failed |
| MDQKEAPSFTEASVHDPSVIKVEDTFYVFGSHLAAAKTEDLRNWTQIATHVHEGNPLIPNVFVELAEAFEWANSNTLWAADVIQLEDGRFYMYYNACQGDAPRSALGVAVADDIEGPYENLGVFLKSGMWGEESPDGTIYDANVHPNAIDPHVFFDEEGKLWMVYGSYSGGIFILEMDPDTGFPLPGQGYGTHLMGGNHSRIEAPYIHYDKETEYYYLYVTFGGLDSTGGYNMRVARSKQPDGPYVDGEGHLMSEVRGAPGTLFDDASIEPYGVKQMGNFLFKRELGERGTGYVSPGHNSVYYDDEVDKIFLFFHTRFPERGEAHEIRVHQMFMNRKGWPVIAPYRYTGESLEKVKAKEVIGDYQWINHGKEISAEIKESVTVRLEKNHKVLGDVTGKWKKVGDYHVELQIDGETYYGVFLRQWDPVAEREVMTFTALSEEGIAIWGSQLEEKTDNEIVDAVYDDLTLEGTIISDVELPTRGMRQTTIAWSSSHEEVLSSSGKVNRPEIGEDDVVVSLTATISKGSAERIKTFELVVPGQTEGGLVAHYPLNGTLENAVDDARFGSGTVTGNRIDNPGGTIAFEQGIDGEAAVFDGTTGIRLPNGLISRNTYTVSFWLNPEQLTEFTTAFFAARSEHHWLSFVPRGHSGMNHDTMLWAGSAQWYDAGTGVKLPVGEWSHVAFSVDNGEIVIYLNGEERFRGENFPNLFTTPNAYFALGVNHWDAPFQGMIDELRIYDGVALTREEIVHLAKQKLEHHHHHH | not failed |
| MLETLYAFFDLGQFSQSPINGSHNPGLVILSYCVALLASYTAILTLERVQIYQAKVARYSWLIVSAVISGVGVWSMHFIGMLAFELHLPMSHSVLLTLISVVPAIVGSFIAMKIQMSLSSVRATLIAGTVLGAGIGLMHYTGMAAMEMSAHLRYDPLWFVLSVFVAVSLGIIALLAYRHYKKSERTSWFRRRSAQIVVAAIIALAISGMHYTAMIAANFYPTRAPDAVFSGHGNWLAYVVGIGSCLTAIMAIIASQIDRRLQQQQKLAQMSAEQLYEVISAIDDGLLLFDEHNRVLLANQAFTRLTGDDLERIKGSKLNIEDYIERSDKLLENIKNSLARRVAWQGKVNVRKRSGTTFPVRLSISKVRYNQQKERHFVATVTDISAEVESSERIRYLAYNDALTGLANRRSLLDHLQDQLATYKEAGQNGALILCDIDKFKILNNTLGSDMGDLLLKRVAERLQSSTKANSFLARLSANEFAVVLTGLERGNSVNIKQQLLTRIYQLLDQLQQPYQLNSYTHLCSFSAGASLFDDSESNAETLMTQSGLALSHSKRKGTGEVSLFRQEFADAVSKRVKLEEQLRNAIKQNEFELYLQPQVNIESKPTGAEALIRWKQSDGRFVSPADFIPLAEETGLIVPLGYWITERACQILQQWQQSPEKAKMQLSINVSAKQFQQPEFVEQVQLLVEKYEIRPHRLKLELTESLLMDDISSVTNKIKQLKRLGIEFALDDFGTGYSSLSYLMQIPFDTLKIDVSFVRNMLDSMEKAQIVYTIIQLGESLKLNIVAEGVETEEQFNYLARLNCDTFQGYLFSKPVPESEFLADKTAP | failed |
| SKQKLVLASGSPRRLELLHQIGIEPARLMPMDIDETPVKLEHPRTLCRRLSQQKAEAAQAALKSEQAWKDAYVLGSDTVVAVGRRIVGKAEYTEEASAALHLLSGRSHWVYTGICLVTPDGKIRQKVAETKVRFKRLSTREIDAYIASGQWRGKAGAYGIQGIAGAFVQKLTGSYTNVVGLPLYETMSLLSGEGFEV | failed |
| MRFVNPIPFVRDINRSKSFYRDRLGLKILEDFGSFVLFETGFAIHEGRSLEETIWRTSSDAQEAYGRRNMLLYFEHADVDAAFQDIAPHVELIHPLERQAWGQRVFRFYDPDGHAIEVGESLSQSGE | not failed |
| NENPDKPTDDVNYNMNEPRLASTLRGGLIIEGNVEQRLKPLQIDFYSQMTVDGGGWGTKNYIQDDEWNNLVWEEYLKQIASINIVIRSLTEKDKDAYANTIAFARIWRVYVHTLAADKFGPMPFPAYEIVEANPPYKSLKDIYDEYFRELDAAINGFNDSAQPIFSDAGIDLIYKNDVSKWKRFANSLRLRLAVRLTEVDQEKCIAEANAAISSPAGLISDKADNAYMPPKADGSWGQDYNYTMFQITWSGPICMSKSVEKLVTNIGGVAWPQGVVNQTSGVAVSSVHPEKVDPRAPKIFQPGIENGDWKGLVYGPKAEEANTGIYQSKQCAELGFIIKDGYPYKSRPYDLFLSEEVHFLKAELYARGFIAGDAKSEYEAGVRASFATWGVTSEVDDYLTSTEKNEAGTSARYDDQQGAGNTALEKIITQKYIAGIPDLAQEGWNDKRRLNLPRLDVAVYRDQAVYNNNDKDILKSANFIKRMRYPTKESLINATEYEKGKSMLGGKGDIVSTPLWWDKNSNYCTSSK | not failed |
| MTTVRTRIAPSPTGDPHVGTAYIALFNLCFARQHGGQFILRIEDTDQLRSTRESEQQIYDALRWLGIEWDEGPDVGGPHGPYRQSERGHIYKKYSDELVEKGHAFTCFCTPERLDAVRAEQMARKETPRYDGHCMHLPKDEVQRRLAAGESHVTRMKVPTEGVCVVPDMLRGDVEIPWDRMDMQVLMKADGLPTYFLANVVDDHLMGITHVLRGEEWLPSAPKLIKLYEYFGWEQPQLCYMPLLRNPDKSKLSKRKNPTSITFYERMGYLPQALLNYLGRMGWSMPDEREKFTLAEMIEHFDLSRVSLGGPIFDLEKLSWLNGQWIREQSVEEFAREVQKWALNPEYLMKIAPHVQGRVENFSQIAPLAGFFFSGGVPLDASLFEHKKLDPTQVRQVLQLVLWKLESLRQWEKERITGCIQAVAEHLQLKLRDVMPLMFPAITGHASSVSVLDAMEILGADLSRYRLRQALELLGGASKKETKEWEKIRDAIPG | failed |

From a protein production outcome set (Wang et al. 2014)
